Data reported in article PMC8928417.
pKd: −log10 of the molar value.

Molecular target: biotinylated histone H3 peptide trimethylated at lysine 27, H3K27me3 (21–44) (UniProt P68431)
Assay: peptide or protein array

pKd: 5.05 to 5.29
Substance: polycomb-based transcription factor (PcTF), monovalent (from UniProt Q9HC52 1-62) (designed binder)
